Measured values from paper PMC4919432, “The Dimeric Architecture of Checkpoint Kinases Mec1^ATR and Tel1^ATM Reveal a Common Structural Organization*” (The Journal of Biological Chemistry, 2016).

Target: T1, Mec1 (yeast (budding yeast), UniProt P38111 1-2368)
T1 construct: Mec1, yeast orthologue of mammalian ATR; 2,368 amino acids as the introduction says; The Mec1 subunit of m1, for the rows of two subunits; also called Mec1^ATR; yeast orthologue of ATR; source: yeast, overexpressed from pBL904 together with Ddc2, purified as the Mec1·Ddc2 complex (IgG-Sepharose, HRV 3C cleavage)
T1 sequence (P38111 whole entry): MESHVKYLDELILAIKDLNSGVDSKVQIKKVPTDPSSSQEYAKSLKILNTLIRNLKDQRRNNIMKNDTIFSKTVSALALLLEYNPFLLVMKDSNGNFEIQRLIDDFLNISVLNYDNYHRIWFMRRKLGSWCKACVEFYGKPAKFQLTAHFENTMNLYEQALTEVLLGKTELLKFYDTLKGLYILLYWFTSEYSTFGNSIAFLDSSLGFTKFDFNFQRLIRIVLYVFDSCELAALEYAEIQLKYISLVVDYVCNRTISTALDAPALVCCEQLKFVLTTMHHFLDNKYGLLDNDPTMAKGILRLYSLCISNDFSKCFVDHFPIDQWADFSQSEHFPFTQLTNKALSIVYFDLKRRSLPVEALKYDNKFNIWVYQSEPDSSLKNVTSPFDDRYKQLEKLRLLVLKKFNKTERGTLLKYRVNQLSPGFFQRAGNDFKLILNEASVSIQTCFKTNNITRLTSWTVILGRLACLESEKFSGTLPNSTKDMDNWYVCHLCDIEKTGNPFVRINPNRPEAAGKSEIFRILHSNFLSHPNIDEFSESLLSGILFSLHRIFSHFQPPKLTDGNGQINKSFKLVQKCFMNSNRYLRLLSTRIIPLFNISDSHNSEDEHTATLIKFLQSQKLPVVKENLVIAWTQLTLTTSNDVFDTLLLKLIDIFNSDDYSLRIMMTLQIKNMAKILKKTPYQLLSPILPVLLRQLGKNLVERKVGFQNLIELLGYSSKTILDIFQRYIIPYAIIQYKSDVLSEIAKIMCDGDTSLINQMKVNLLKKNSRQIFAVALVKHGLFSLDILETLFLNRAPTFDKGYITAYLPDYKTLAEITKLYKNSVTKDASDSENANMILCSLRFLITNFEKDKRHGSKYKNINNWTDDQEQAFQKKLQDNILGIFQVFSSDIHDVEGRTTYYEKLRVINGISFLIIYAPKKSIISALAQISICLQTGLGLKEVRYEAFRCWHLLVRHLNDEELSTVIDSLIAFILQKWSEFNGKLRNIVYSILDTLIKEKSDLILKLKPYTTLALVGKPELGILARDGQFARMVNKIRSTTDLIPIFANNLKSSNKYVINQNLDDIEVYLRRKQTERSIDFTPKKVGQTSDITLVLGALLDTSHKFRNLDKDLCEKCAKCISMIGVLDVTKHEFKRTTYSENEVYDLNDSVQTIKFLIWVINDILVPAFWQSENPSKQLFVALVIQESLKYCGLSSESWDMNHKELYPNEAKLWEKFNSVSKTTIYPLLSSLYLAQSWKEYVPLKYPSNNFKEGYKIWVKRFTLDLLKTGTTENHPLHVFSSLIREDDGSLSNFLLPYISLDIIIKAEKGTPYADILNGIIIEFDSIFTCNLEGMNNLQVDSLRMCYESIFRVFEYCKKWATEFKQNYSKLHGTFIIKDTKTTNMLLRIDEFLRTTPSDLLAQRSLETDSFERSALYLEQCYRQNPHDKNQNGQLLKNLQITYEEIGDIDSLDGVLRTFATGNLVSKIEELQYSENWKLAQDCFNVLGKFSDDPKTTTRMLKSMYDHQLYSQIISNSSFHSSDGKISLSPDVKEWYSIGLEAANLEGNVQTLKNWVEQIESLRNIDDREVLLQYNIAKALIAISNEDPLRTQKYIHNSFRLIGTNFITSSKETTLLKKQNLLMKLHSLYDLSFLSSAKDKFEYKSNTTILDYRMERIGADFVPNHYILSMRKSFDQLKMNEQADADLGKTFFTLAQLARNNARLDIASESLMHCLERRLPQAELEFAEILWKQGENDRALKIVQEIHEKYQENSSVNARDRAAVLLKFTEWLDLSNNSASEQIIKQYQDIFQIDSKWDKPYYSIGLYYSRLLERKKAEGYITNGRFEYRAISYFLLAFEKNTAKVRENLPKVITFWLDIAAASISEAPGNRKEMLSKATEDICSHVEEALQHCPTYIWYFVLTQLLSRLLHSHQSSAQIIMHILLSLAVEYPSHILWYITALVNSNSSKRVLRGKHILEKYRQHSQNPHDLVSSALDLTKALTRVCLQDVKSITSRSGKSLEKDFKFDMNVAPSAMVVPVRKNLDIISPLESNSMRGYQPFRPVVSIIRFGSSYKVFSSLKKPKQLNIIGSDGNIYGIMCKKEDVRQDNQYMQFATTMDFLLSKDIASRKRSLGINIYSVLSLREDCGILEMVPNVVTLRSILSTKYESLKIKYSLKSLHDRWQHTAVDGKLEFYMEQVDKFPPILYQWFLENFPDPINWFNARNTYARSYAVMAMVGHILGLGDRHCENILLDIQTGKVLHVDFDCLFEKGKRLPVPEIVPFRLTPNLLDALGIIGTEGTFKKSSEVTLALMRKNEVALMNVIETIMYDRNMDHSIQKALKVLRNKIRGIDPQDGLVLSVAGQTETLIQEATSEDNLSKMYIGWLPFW
Test: SEC; Mec1·Ddc2 on Superose 6 HR 10/30, 0.3 ml/min; 50 mM HEPES-KOH pH 7.4, 200 mM KCl, 10% glycerol, 0.1% Tween 20, 0.01% Nonidet P-40, 1 mM EDTA, 1 mM EGTA, 2 mM DTT; size against Bio-Rad gel filtration standards; peak fractions on SDS-PAGE
Conditions: both partners purified

binding result: binds
B1: Ddc2 (natural protein, yeast (budding yeast), UniProt Q04377 1-747, looked up)
chain: MRRETVGEFSSDDDDDILLELGTRPPRFTQIPPSSAALQTQIPTTLEVTTTTLNNKQSKNDNQLVNQLNKAQGEASMLRDKINFLNIEREKEKNIQAVKVNELQVKHLQELAKLKQELQKLEDEKKFLQMEARGKSKREVITNVKPPSTTLSTNTNTITPDSSSVAIEAKPQSPQSKKRKISDNLLKKNMVPLNPNRIIPDETSLFLESILLHQIIGADLSTIEILNRLKLDYITEFKFKNFVIAKGAPIGKSIVSLLLRCKKTLTLDRFIDTLLEDIAVLIKEISVHPNESKLAVPFLVALMYQIVQFRPSATHNLALKDCFLFICDLIRIYHHVLKVPIHESNMNLHVEPQIFQYELIDYLIISYSFDLLEGILRVLQSHPKQTYMEFFDENILKSFEFVYKLALTISYKPMVNVIFSAVEVVNIITSIILNMDNSSDLKSLISGSWWRDCITRLYALLEKEIKSGDVYNENVDTTTLHMSKYHDFFGLIRNIGDNELGGLISKLIYTDRLQSVPRVISKEDIGMDSDKFTAPIIGYKMEKWLLKLKDEVLNIFENLLMIYGDDATIVNGEMLIHSSKFLSREQALMIERYVGQDSPNLDLRCHLIEHTLTIIYRLWKDHFKQLREEQIKQVESQLIMSLWRFLVCQTETVTANEREMRDHRHLVDSLHDLTIKDQASYYEDAFEDLPEYIEEELKMQLNKRTGRIMQVKYDEKFQEMARTILESKSFDLTTLEEADSLYISMGL
notes: Ddc2 (also called Lcd1 or Pie1), yeast orthologue of ATRIP; The Ddc2 subunit of m1, for the rows of two subunits; also called Lcd1; Pie1; source: yeast, overexpressed from pBL904 together with Mec1, purified as the Mec1·Ddc2 complex (IgG-Sepharose, HRV 3C cleavage)
